The text below walks through data of patent publication US20180155451A1 (published 2018).

Assay [1] deals with T1, FcγRIa (human, UniProt P12314 16-292).
T1 construct: extracellular domain; also called FcgRI; 1a
In words: SPR, captured antibody; relative to GpH7-A5/GpH7-B3/GpL16-k0.

Assay [2] deals with T2, FcγRIIb (human, UniProt P31994 43-217).
T2 construct: extracellular domain; also called FcgRIIb; 2b
T2 sequence (looked up): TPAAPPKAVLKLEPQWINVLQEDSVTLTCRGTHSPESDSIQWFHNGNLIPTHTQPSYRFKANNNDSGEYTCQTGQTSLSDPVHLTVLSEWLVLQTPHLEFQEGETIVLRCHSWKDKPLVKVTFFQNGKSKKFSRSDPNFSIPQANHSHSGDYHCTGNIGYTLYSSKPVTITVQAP
Described as above.

Assay [3] addresses T3, FcγRIIa H (human, UniProt P12318 34-217).
T3 construct: extracellular domain; also called FcγRIIa type H; 2aH
T3 sequence (looked up): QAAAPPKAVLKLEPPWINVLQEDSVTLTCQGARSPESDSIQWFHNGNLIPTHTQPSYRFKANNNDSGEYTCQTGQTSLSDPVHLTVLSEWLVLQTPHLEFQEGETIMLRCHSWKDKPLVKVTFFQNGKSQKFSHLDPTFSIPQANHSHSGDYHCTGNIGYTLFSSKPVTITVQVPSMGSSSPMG
Description: SPR (Biacore), relative binding vs GpH7-A5/GpH7-B3/GpL16-k0. The method, then: (§1) The heterodimerized antibodies He Abs in which one of the H chains was introduced with an alteration were assayed for their binding activities to each activating FcγR and inhibitory FcγR according to the method described in Example 4. […] The activating FcγRs in FIGS. 26, 27, 28, and 29 are FcγRIa, FcγRIIa (R), FcγRIIa (H), and FcγRIIIa, respectively.
(§2) Analysis of interaction between objective antibody and the FcγR was carried out using Biacore T100 (GE Healthcare). HBS-EP+ (GE Healthcare) was used as the running buffer, and the measurement temperature was set to 25° C. Chips produced by immobilizing the antigen peptide by the amine coupling method to a Series S Sencor Chip CM5 (GE Healthcare), or alternatively, chips produced by allowing preliminarily biotinylated antigen peptides to interact with and immobilize onto a Series S Sensor Chip SA (certified) (GE Healthcare) were used. Antibodies of interest were captured onto an antigen peptide-immobilized chip, and allowed to interact to each FcγR diluted with running buffer. To regenerate and repeatedly use the chip, the antibodies captured on the chip were washed off by reacting 10 mM glycine-HCl, pH 1.5.
In general terms: SPR reads the build-up and loss of mass on a sensor chip optically.

For assay [4], the target named is T4, FcγRIIb (human, UniProt P31994 43-217).
T4 construct: extracellular domain; also called 2b
T4 sequence (looked up): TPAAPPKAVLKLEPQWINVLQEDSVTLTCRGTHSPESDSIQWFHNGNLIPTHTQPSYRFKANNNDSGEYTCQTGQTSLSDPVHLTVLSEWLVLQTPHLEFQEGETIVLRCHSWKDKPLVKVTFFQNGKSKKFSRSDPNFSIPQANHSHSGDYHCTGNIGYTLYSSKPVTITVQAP
The assay is described as above. The method, then:
as §1, §2

T1 sequence (P12314 16-292): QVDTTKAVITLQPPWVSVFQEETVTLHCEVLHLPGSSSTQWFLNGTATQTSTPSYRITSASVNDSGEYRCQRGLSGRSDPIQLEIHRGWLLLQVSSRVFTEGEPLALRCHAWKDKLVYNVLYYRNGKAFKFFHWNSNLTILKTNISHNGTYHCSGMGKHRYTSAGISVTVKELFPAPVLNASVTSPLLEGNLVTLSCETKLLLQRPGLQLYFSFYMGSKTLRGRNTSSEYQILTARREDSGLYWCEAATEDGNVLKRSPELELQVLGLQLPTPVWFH

B1: GpH7-A5/GpH7-B3 variant (E269_01G)/GpL16-k0 (antibody, human IgG1, kappa)
heavy 1: not shown
heavy 2: not shown
light: DIVMTQSPLSLPVTPGEPASISCQASESLVHSNRNTYLHWYLQKPGQSPQLLIYKVSNRFSGVPDRFSGSGSGTDFTLKISRVEAEDVGVYYCSQNTHVPPTFGQGTKVEIERTVAAPSVFIFPPSDEQLKSGTASVVCLLNNFYPREAKVQWKVDNALQSGNSQESVTEQDSKDSTYSLSSTLTLSKADYEKHKVYACEVTHQGLSSPVTKSFNRGEC
notes: IgG1 heterodimer, mutation in the GpH7-B3 chain only; also called He Ab
For B1, the He/Con_1a in assay [1] is 104 relative, HeCon Ab = 100. Further, the He/Con_2b in assay [2] is 51.5 relative, HeCon Ab = 100.

B2: GpH7-A5/GpH7-B3 variant N325_06M/GpL16-k0 (antibody, human IgG1, kappa)
heavy 1: not shown
heavy 2: not shown
light: DIVMTQSPLSLPVTPGEPASISCQASESLVHSNRNTYLHWYLQKPGQSPQLLIYKVSNRFSGVPDRFSGSGSGTDFTLKISRVEAEDVGVYYCSQNTHVPPTFGQGTKVEIERTVAAPSVFIFPPSDEQLKSGTASVVCLLNNFYPREAKVQWKVDNALQSGNSQESVTEQDSKDSTYSLSSTLTLSKADYEKHKVYACEVTHQGLSSPVTKSFNRGEC
notes: heterodimerized IgG1, mutation in one H chain only; also called He Ab
Take B2: in assay [3], the He/Con_2aH was 48.2 % of control He Ab (=100). Besides, in assay [4], the He/Con_2b was 217 % of control He Ab (=100).

B3: GpH7-A5/GpH7-B3 variant N325_20W/GpL16-k0 (antibody, human IgG1, kappa)
heavy 1: not shown
heavy 2: not shown
light: DIVMTQSPLSLPVTPGEPASISCQASESLVHSNRNTYLHWYLQKPGQSPQLLIYKVSNRFSGVPDRFSGSGSGTDFTLKISRVEAEDVGVYYCSQNTHVPPTFGQGTKVEIERTVAAPSVFIFPPSDEQLKSGTASVVCLLNNFYPREAKVQWKVDNALQSGNSQESVTEQDSKDSTYSLSSTLTLSKADYEKHKVYACEVTHQGLSSPVTKSFNRGEC
notes: as for B2
Take B3: the He/Con_2aH in assay [3] was 47.2 % of control He Ab (=100). Also, the He/Con_2b in assay [4] was 169 % of control He Ab (=100).

B4: GpH7-A5/GpH7-B3 variant P331_04F/GpL16-k0 (antibody, human IgG1, kappa)
heavy 1: not shown
heavy 2: not shown
light: DIVMTQSPLSLPVTPGEPASISCQASESLVHSNRNTYLHWYLQKPGQSPQLLIYKVSNRFSGVPDRFSGSGSGTDFTLKISRVEAEDVGVYYCSQNTHVPPTFGQGTKVEIERTVAAPSVFIFPPSDEQLKSGTASVVCLLNNFYPREAKVQWKVDNALQSGNSQESVTEQDSKDSTYSLSSTLTLSKADYEKHKVYACEVTHQGLSSPVTKSFNRGEC
notes: as for B2
Take B4: the He/Con_2aH in assay [3] was 84.7 % of control He Ab (=100). Besides, the He/Con_2b in assay [4] was 110 % of control He Ab (=100).

B5: GpH7-A5/GpH7-B3 variant P331_16H/GpL16-k0 (antibody, human IgG1, kappa)
heavy 1: not shown
heavy 2: not shown
light: DIVMTQSPLSLPVTPGEPASISCQASESLVHSNRNTYLHWYLQKPGQSPQLLIYKVSNRFSGVPDRFSGSGSGTDFTLKISRVEAEDVGVYYCSQNTHVPPTFGQGTKVEIERTVAAPSVFIFPPSDEQLKSGTASVVCLLNNFYPREAKVQWKVDNALQSGNSQESVTEQDSKDSTYSLSSTLTLSKADYEKHKVYACEVTHQGLSSPVTKSFNRGEC
notes: as for B2
Turning to B5, the He/Con_2aH in assay [3] is 84.5 % of control He Ab (=100). The He/Con_2b in assay [4] was 116 % of control He Ab (=100).

B6: GpH7-A5/GpH7-B3 variant N325_13S/GpL16-k0 (antibody, human IgG1, kappa)
heavy 1: not shown
heavy 2: not shown
light: DIVMTQSPLSLPVTPGEPASISCQASESLVHSNRNTYLHWYLQKPGQSPQLLIYKVSNRFSGVPDRFSGSGSGTDFTLKISRVEAEDVGVYYCSQNTHVPPTFGQGTKVEIERTVAAPSVFIFPPSDEQLKSGTASVVCLLNNFYPREAKVQWKVDNALQSGNSQESVTEQDSKDSTYSLSSTLTLSKADYEKHKVYACEVTHQGLSSPVTKSFNRGEC
notes: as for B2
Turning to B6, the He/Con_2aH in assay [3] was 79.7 % of control He Ab (=100). In addition, in assay [4], the He/Con_2b is 177 % of control He Ab (=100).

B7: GpH7-A5/GpH7-B3 variant P331_20W/GpL16-k0 (antibody, human IgG1, kappa)
heavy 1: not shown
heavy 2: not shown
light: DIVMTQSPLSLPVTPGEPASISCQASESLVHSNRNTYLHWYLQKPGQSPQLLIYKVSNRFSGVPDRFSGSGSGTDFTLKISRVEAEDVGVYYCSQNTHVPPTFGQGTKVEIERTVAAPSVFIFPPSDEQLKSGTASVVCLLNNFYPREAKVQWKVDNALQSGNSQESVTEQDSKDSTYSLSSTLTLSKADYEKHKVYACEVTHQGLSSPVTKSFNRGEC
notes: as for B2
In the case of B7, the He/Con_2aH in assay [3] is 82.8 % of control He Ab (=100). In addition, the He/Con_2b in assay [4] was 111 % of control He Ab (=100).

B8: GpH7-A5/GpH7-B3 variant N325_08L/GpL16-k0 (antibody, human IgG1, kappa)
heavy 1: not shown
heavy 2: not shown
light: DIVMTQSPLSLPVTPGEPASISCQASESLVHSNRNTYLHWYLQKPGQSPQLLIYKVSNRFSGVPDRFSGSGSGTDFTLKISRVEAEDVGVYYCSQNTHVPPTFGQGTKVEIERTVAAPSVFIFPPSDEQLKSGTASVVCLLNNFYPREAKVQWKVDNALQSGNSQESVTEQDSKDSTYSLSSTLTLSKADYEKHKVYACEVTHQGLSSPVTKSFNRGEC
notes: as for B2
As to B8, the He/Con_2aH in assay [3] is 52 % of control He Ab (=100). In addition, the He/Con_2b in assay [4] is 197 % of control He Ab (=100).
